Source: US20230235013A1 (MABSOLVE, published 2023)

Tests used:
[1] = target: T1, human FcRn (R&D Systems Cat. No. 8639-Fc) (human, UniProt P55899 24-297; P61769 21-119); test: SPR, FcRn captured; Mean
[2] = target: T1, human FcRn (R&D Systems Cat. No. …); test: SPR, FcRn captured; Expt 1
[3] = target: T1, human FcRn (R&D Systems Cat. No. …); test: SPR, FcRn captured; Expt 2
[4] = target: T1, human FcRn (R&D Systems Cat. No. …); test: SPR, FcRn captured; Expt 3
[5] = target: T2, Human C1q (Sigma Cat. No. 20476), HRP-labelled (human, UniProt P02745 23-245; P02746 28-253; P02747 29-245); test: ELISA, antibody coated, HRP-C1q; Expt 1, buffer alone 0.061
T2 construct: Coupled to horse-radish peroxidase with Lightning-Link kit; also called HRP-labelled C1q

T1 sequence (P55899 24-297 limits assumed, chain 1 of 2): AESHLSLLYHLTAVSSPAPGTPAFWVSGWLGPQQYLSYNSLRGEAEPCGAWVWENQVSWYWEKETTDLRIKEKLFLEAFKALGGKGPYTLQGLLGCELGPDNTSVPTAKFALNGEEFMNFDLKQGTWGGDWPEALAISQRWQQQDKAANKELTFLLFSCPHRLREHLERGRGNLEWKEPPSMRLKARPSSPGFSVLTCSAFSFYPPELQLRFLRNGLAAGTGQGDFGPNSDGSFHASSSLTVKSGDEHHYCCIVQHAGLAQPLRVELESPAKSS
T1 sequence (P61769 21-119 limits assumed, chain 2 of 2): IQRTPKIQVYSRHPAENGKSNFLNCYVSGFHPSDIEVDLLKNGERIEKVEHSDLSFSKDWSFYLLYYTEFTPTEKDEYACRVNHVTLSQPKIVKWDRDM

Binder | Mean Absorbance [5] | further results
anti-CD20 (rituximab) human IgG1 L234Q/L235T/G236R (antibody, EU numbering; also called 1-120; copies: 2 + 2) heavy: QVQLQQPGAELVKPGASVKMSCKASGYTFTSYNMHWVKQTPGRGLEWIGAIYPGNGDTSYNQKFKGKATLTADKSSSTAYMQLSSLTSEDSAVYYCARSTYYGGDWYFNVWGAGTTVTVSSASTKGPSVFPLAPSSKSTSGGTAALGCLVKDYFPEPVTVSWNSGALTSGVHTFPAVLQSSGLYSLSSVVTVPSSSLGTQTYICNVNHKPSNTKVDKKVEPKSCDKTHTCPPCPAPEQTRGPSVFLFPPKPKDTLMISRTPEVTCVVVDVSHEDPEVKFNWYVDGVEVHNAKTKPREEQYNSTYRVVSVLTVLHQDWLNGKEYKCKVSNKALPAPIEKTISKAKGQPREPQVYTLPPSRDELTKNQVSLTCLVKGFYPSDIAVEWESNGQPENNYKTTPPVLDSDGSFFLYSKLTVDKSRWQQGNVFSCSVMHEALHNHYTQKSLSLSPGK light: QIVLSQSPAILSASPGEKVTMTCRASSSVSYIHWFQQKPGSSPKPWIYATSNLASGVPVRFSGSGSGTSYSLTISRVEAEDAATYYCQQWTSNPPTFGGGTKLEIKRTVAAPSVFIFPPSDEQLKSGTASVVCLLNNFYPREAKVQWKVDNALQSGNSQESVTEQDSKDSTYSLSSTLTLSKADYEKHKVYACEVTHQGLSSPVTKSFNRGEC | – | Corrected and normalised response (% of wild-type reference) [1]: 95.3 % of wild-type reference; Corrected and normalised response (% of wild-type reference) [2]: 95.6 % of wild-type reference; Corrected and normalised response (% of wild-type reference) [3]: 95.1 % of wild-type reference; Corrected and normalised response (% of wild-type reference) [4]: 95.2 % of wild-type reference
anti-CD20 (rituximab) human IgG1 L234S/L235R/G236R (antibody, EU numbering; also called 2-51; copies: 2 + 2) heavy: QVQLQQPGAELVKPGASVKMSCKASGYTFTSYNMHWVKQTPGRGLEWIGAIYPGNGDTSYNQKFKGKATLTADKSSSTAYMQLSSLTSEDSAVYYCARSTYYGGDWYFNVWGAGTTVTVSSASTKGPSVFPLAPSSKSTSGGTAALGCLVKDYFPEPVTVSWNSGALTSGVHTFPAVLQSSGLYSLSSVVTVPSSSLGTQTYICNVNHKPSNTKVDKKVEPKSCDKTHTCPPCPAPESRRGPSVFLFPPKPKDTLMISRTPEVTCVVVDVSHEDPEVKFNWYVDGVEVHNAKTKPREEQYNSTYRVVSVLTVLHQDWLNGKEYKCKVSNKALPAPIEKTISKAKGQPREPQVYTLPPSRDELTKNQVSLTCLVKGFYPSDIAVEWESNGQPENNYKTTPPVLDSDGSFFLYSKLTVDKSRWQQGNVFSCSVMHEALHNHYTQKSLSLSPGK light: QIVLSQSPAILSASPGEKVTMTCRASSSVSYIHWFQQKPGSSPKPWIYATSNLASGVPVRFSGSGSGTSYSLTISRVEAEDAATYYCQQWTSNPPTFGGGTKLEIKRTVAAPSVFIFPPSDEQLKSGTASVVCLLNNFYPREAKVQWKVDNALQSGNSQESVTEQDSKDSTYSLSSTLTLSKADYEKHKVYACEVTHQGLSSPVTKSFNRGEC | 0.037 absorbance (450 nm) | –
anti-CD20 (rituximab) human IgG1 L234R/L235I/G236R (antibody, EU numbering; also called 2-39; copies: 2 + 2) heavy: QVQLQQPGAELVKPGASVKMSCKASGYTFTSYNMHWVKQTPGRGLEWIGAIYPGNGDTSYNQKFKGKATLTADKSSSTAYMQLSSLTSEDSAVYYCARSTYYGGDWYFNVWGAGTTVTVSSASTKGPSVFPLAPSSKSTSGGTAALGCLVKDYFPEPVTVSWNSGALTSGVHTFPAVLQSSGLYSLSSVVTVPSSSLGTQTYICNVNHKPSNTKVDKKVEPKSCDKTHTCPPCPAPERIRGPSVFLFPPKPKDTLMISRTPEVTCVVVDVSHEDPEVKFNWYVDGVEVHNAKTKPREEQYNSTYRVVSVLTVLHQDWLNGKEYKCKVSNKALPAPIEKTISKAKGQPREPQVYTLPPSRDELTKNQVSLTCLVKGFYPSDIAVEWESNGQPENNYKTTPPVLDSDGSFFLYSKLTVDKSRWQQGNVFSCSVMHEALHNHYTQKSLSLSPGK light: QIVLSQSPAILSASPGEKVTMTCRASSSVSYIHWFQQKPGSSPKPWIYATSNLASGVPVRFSGSGSGTSYSLTISRVEAEDAATYYCQQWTSNPPTFGGGTKLEIKRTVAAPSVFIFPPSDEQLKSGTASVVCLLNNFYPREAKVQWKVDNALQSGNSQESVTEQDSKDSTYSLSSTLTLSKADYEKHKVYACEVTHQGLSSPVTKSFNRGEC | 0.169 absorbance (450 nm) | –
anti-CD20 (rituximab) human IgG1 L234R/L235K/G236R (antibody, EU numbering; also called 2-40; copies: 2 + 2) heavy: QVQLQQPGAELVKPGASVKMSCKASGYTFTSYNMHWVKQTPGRGLEWIGAIYPGNGDTSYNQKFKGKATLTADKSSSTAYMQLSSLTSEDSAVYYCARSTYYGGDWYFNVWGAGTTVTVSSASTKGPSVFPLAPSSKSTSGGTAALGCLVKDYFPEPVTVSWNSGALTSGVHTFPAVLQSSGLYSLSSVVTVPSSSLGTQTYICNVNHKPSNTKVDKKVEPKSCDKTHTCPPCPAPERKRGPSVFLFPPKPKDTLMISRTPEVTCVVVDVSHEDPEVKFNWYVDGVEVHNAKTKPREEQYNSTYRVVSVLTVLHQDWLNGKEYKCKVSNKALPAPIEKTISKAKGQPREPQVYTLPPSRDELTKNQVSLTCLVKGFYPSDIAVEWESNGQPENNYKTTPPVLDSDGSFFLYSKLTVDKSRWQQGNVFSCSVMHEALHNHYTQKSLSLSPGK light: QIVLSQSPAILSASPGEKVTMTCRASSSVSYIHWFQQKPGSSPKPWIYATSNLASGVPVRFSGSGSGTSYSLTISRVEAEDAATYYCQQWTSNPPTFGGGTKLEIKRTVAAPSVFIFPPSDEQLKSGTASVVCLLNNFYPREAKVQWKVDNALQSGNSQESVTEQDSKDSTYSLSSTLTLSKADYEKHKVYACEVTHQGLSSPVTKSFNRGEC | 0.055 absorbance (450 nm) | –
anti-CD20 (rituximab) human IgG1 L234S/L235H/G236R (antibody, EU numbering; also called 2-48; copies: 2 + 2) heavy: QVQLQQPGAELVKPGASVKMSCKASGYTFTSYNMHWVKQTPGRGLEWIGAIYPGNGDTSYNQKFKGKATLTADKSSSTAYMQLSSLTSEDSAVYYCARSTYYGGDWYFNVWGAGTTVTVSSASTKGPSVFPLAPSSKSTSGGTAALGCLVKDYFPEPVTVSWNSGALTSGVHTFPAVLQSSGLYSLSSVVTVPSSSLGTQTYICNVNHKPSNTKVDKKVEPKSCDKTHTCPPCPAPESHRGPSVFLFPPKPKDTLMISRTPEVTCVVVDVSHEDPEVKFNWYVDGVEVHNAKTKPREEQYNSTYRVVSVLTVLHQDWLNGKEYKCKVSNKALPAPIEKTISKAKGQPREPQVYTLPPSRDELTKNQVSLTCLVKGFYPSDIAVEWESNGQPENNYKTTPPVLDSDGSFFLYSKLTVDKSRWQQGNVFSCSVMHEALHNHYTQKSLSLSPGK light: QIVLSQSPAILSASPGEKVTMTCRASSSVSYIHWFQQKPGSSPKPWIYATSNLASGVPVRFSGSGSGTSYSLTISRVEAEDAATYYCQQWTSNPPTFGGGTKLEIKRTVAAPSVFIFPPSDEQLKSGTASVVCLLNNFYPREAKVQWKVDNALQSGNSQESVTEQDSKDSTYSLSSTLTLSKADYEKHKVYACEVTHQGLSSPVTKSFNRGEC | 0.04 absorbance (450 nm) | –
anti-CD20 (rituximab) human IgG1 L234R/L235H/G236R (antibody, EU numbering; also called 2-38; copies: 2 + 2) heavy: QVQLQQPGAELVKPGASVKMSCKASGYTFTSYNMHWVKQTPGRGLEWIGAIYPGNGDTSYNQKFKGKATLTADKSSSTAYMQLSSLTSEDSAVYYCARSTYYGGDWYFNVWGAGTTVTVSSASTKGPSVFPLAPSSKSTSGGTAALGCLVKDYFPEPVTVSWNSGALTSGVHTFPAVLQSSGLYSLSSVVTVPSSSLGTQTYICNVNHKPSNTKVDKKVEPKSCDKTHTCPPCPAPERHRGPSVFLFPPKPKDTLMISRTPEVTCVVVDVSHEDPEVKFNWYVDGVEVHNAKTKPREEQYNSTYRVVSVLTVLHQDWLNGKEYKCKVSNKALPAPIEKTISKAKGQPREPQVYTLPPSRDELTKNQVSLTCLVKGFYPSDIAVEWESNGQPENNYKTTPPVLDSDGSFFLYSKLTVDKSRWQQGNVFSCSVMHEALHNHYTQKSLSLSPGK light: QIVLSQSPAILSASPGEKVTMTCRASSSVSYIHWFQQKPGSSPKPWIYATSNLASGVPVRFSGSGSGTSYSLTISRVEAEDAATYYCQQWTSNPPTFGGGTKLEIKRTVAAPSVFIFPPSDEQLKSGTASVVCLLNNFYPREAKVQWKVDNALQSGNSQESVTEQDSKDSTYSLSSTLTLSKADYEKHKVYACEVTHQGLSSPVTKSFNRGEC | 0.062 absorbance (450 nm) | –
